# Assay results reported in the supplement of paper PMC9732359.
# ± gives the uncertainty stated by the source.
# Test: protein stability index of a GFP-peptide fusion (yeast GPS) (PSI 1-4); higher = more stable; sorted into four equal gates, so the index is relative within each strain
# In short: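 For each peptide, the protein stability index sums the read frequency in every gate after multiplying it by the gate number. Read frequencies came from plasmids that were PCR-amplified from each gate and Illumina-sequenced, with reads assigned to strains by barcodes. The gates were four equal bins of GFP/Cherry fluorescence ratio applied to mid-log yeast in leucine-free medium carrying a pooled library of tiled 17-residue yeast protein peptides fused downstream of GFP on a Cherry-expressing plasmid.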
Sequence,protein stability index (doa10∆),protein stability index (pdr5∆),protein stability index (san1∆),protein stability index (ubr1∆)
KDGETTDANGKTIVTGG [RPO26],3.39 ± 0.076,3.32 ± 0.047,3.37 ± 0.059,3.33 ± 0.047
NSLTKYPDLKAFHNNLK [MED1],2.9 ± 0.11,3.16 ± 0.089,2.89 ± 0.092,2.93 ± 0.062
SGIVASPAVKKLLQLAG [RPS2],1.56 ± 0.12,1.66 ± 0.14,,
QVNGNIRKVSNDRESVL [SMC3],3.12 ± 0.15,1.88 ± 0.079,1.92 ± 0.083,2.18 ± 0.056
GALQESVEAYLVSLFED [HHT1],1.42 ± 0.095,2.62 ± 0.12,2.29 ± 0.12,2.05 ± 0.08
DKLYIHFVQEEPLAFYL [RGR1],2.21 ± 0.041,2.35 ± 0.045,2.4 ± 0.045,2.32 ± 0.033
EAQIKDWVENELEALKL [FAS2],1.96 ± 0.14,1.25 ± 0.091,,2.01 ± 0.1
PIVLLNTLRKCYPQFAE [UBP6],1.25 ± 0.11,1.26 ± 0.073,1.14 ± 0.16,1.19 ± 0.12
GVAASQGSMSERPPYIL [SIR2],2.75 ± 0.11,3.08 ± 0.089,2.72 ± 0.097,3.16 ± 0.085
NNDDNGNNNNNNSGNDN [MED2],2.93 ± 0.043,2.99 ± 0.04,3.01 ± 0.034,3.05 ± 0.041
GVGILYKGMASNDERIV [BRR2],2.44 ± 0.098,2.23 ± 0.081,1.79 ± 0.11,3.15 ± 0.09
NSFKLFKAEKLQIVNQL [RPC17],2.82 ± 0.077,2.32 ± 0.076,1.85 ± 0.16,2.13 ± 0.056
GFIETTELLNIYDSEDP [RPN3],2.71 ± 0.091,3.01 ± 0.095,2.85 ± 0.084,3.06 ± 0.075
IHPIPSVTVSQGNYVTE [YMR129W/POM152],2.21 ± 0.055,2.6 ± 0.066,2.58 ± 0.073,2.43 ± 0.043
ETDHKTNENGETDDNIE [SRB4],3.01 ± 0.22,3.57 ± 0.15,3.08 ± 0.083,3.21 ± 0.089
VEENRVRYTTSVMPPNE [DLS1],2.62 ± 0.055,2.79 ± 0.051,2.85 ± 0.048,2.86 ± 0.055
SKVASSLVIIILVKRYS [ECM29],1.85 ± 0.054,1.44 ± 0.042,1.71 ± 0.094,2.12 ± 0.051
NQEDLFELVHHFFQIDG [YML103C/NUP188],2.97 ± 0.079,3.04 ± 0.065,2.85 ± 0.081,2.68 ± 0.051
NFLRLPASNILRRTTQR [YDL116W/NUP84],3.08 ± 0.27,,3.25 ± 0.13,
LPYNWDALEMQWRYLYD [ARP7],2.1 ± 0.065,2.1 ± 0.073,2.44 ± 0.11,2.19 ± 0.068
FSMLQMAFEASAAAAGN [BRR2],,2.26 ± 0.25,1.76 ± 0.21,
LGKYDLTVIEKLDSKKI [SRP68],,2.86 ± 0.23,3.53 ± 0.12,3.63 ± 0.16
KEIMDKIITSRPLQKIM [SIN4],2.13 ± 0.12,1.23 ± 0.068,1.45 ± 0.18,1.06 ± 0.065
RMRLRALETENMEIRNL [GRR1],3.09 ± 0.069,3.02 ± 0.051,2.78 ± 0.055,3.04 ± 0.041
SLYAYCHSKLRGQQVEN [GRR1],2.51 ± 0.1,2.52 ± 0.092,2.54 ± 0.1,2.6 ± 0.097
GIHILLYSGLIIDEIIT [RPC82],1.15 ± 0.094,1.41 ± 0.25,,1.21 ± 0.082

Sequence,protein stability index (doa10∆),protein stability index (pdr5∆),protein stability index (san1∆),protein stability index (ubr1∆)
MVKLIVMLCTLTGYQNN [YJL039C/NUP192],1.9 ± 0.12,1.52 ± 0.075,1.99 ± 0.11,1.5 ± 0.095
LVFQLAKNFSAQKRVVS [SRB8],1.69 ± 0.053,2.06 ± 0.072,1.86 ± 0.076,1.94 ± 0.058
FWSLHSSTYYNLDYLFE [NUT1],2.44 ± 0.053,2.05 ± 0.037,2 ± 0.063,1.95 ± 0.029
QVSKKLSSIEASLKIKN [SMC3],1.67 ± 0.069,1.7 ± 0.085,2.44 ± 0.12,2.27 ± 0.08
TTVKPLFQNVPEQGEEP [YAR002W/NUP60],3.08 ± 0.07,3.3 ± 0.06,3.32 ± 0.04,3.21 ± 0.052
VQARDNSQVFGVARIYA [RPS14B],2.39 ± 0.074,2.3 ± 0.054,2.78 ± 0.047,2.91 ± 0.059
EMERIVKNLTKYLSDIM [SRP68],2.76 ± 0.25,2.53 ± 0.099,,2.06 ± 0.074
NLLKNFISSNDAFNMLS [SNF6],1.61 ± 0.099,2 ± 0.061,1.97 ± 0.13,1.98 ± 0.043
MTDRYSFSLTTFSPSGK [PRE8],,3.16 ± 0.25,,
VKLYGREGSSARTIKAT [RPB2],2.47 ± 0.12,3.36 ± 0.12,3.25 ± 0.088,3.29 ± 0.19
REDLNKAEYVDQYDAER [RPO31],3.15 ± 0.1,3.11 ± 0.11,3.33 ± 0.092,3.34 ± 0.083
VFIFPTSNWEIYKPLLF [SRB8],2.15 ± 0.06,2.6 ± 0.083,2.84 ± 0.062,2.74 ± 0.056
AEGQTNSISDFLGEQVN [RPN1],3.06 ± 0.079,2.89 ± 0.067,2.98 ± 0.077,3.12 ± 0.059
NKNNNNRHNLLNDVVSF [SWI1],2.99 ± 0.061,1.98 ± 0.036,1.99 ± 0.037,1.9 ± 0.034
KCKEVGITAVHVKIRAT [RPS14B],2.39 ± 0.063,1.64 ± 0.051,1.7 ± 0.1,2.19 ± 0.043
KEKIQHELGINIDSLKF [BRR2],3.19 ± 0.065,3.07 ± 0.053,3.05 ± 0.043,3.22 ± 0.06
PFDMGGYFIINGSEKVL [RPB2],2.83 ± 0.14,2.28 ± 0.14,2.56 ± 0.27,2.33 ± 0.16
ACGAFININEFALPAGS [CDC53],2.36 ± 0.096,2.53 ± 0.091,1.99 ± 0.12,1.87 ± 0.074
YRAFGSIWQVKDQLPDL [MED7],3.08 ± 0.13,3.17 ± 0.086,2.94 ± 0.09,3.29 ± 0.083
DVAFLKTAYSIYLSQNE [RPN1],2.25 ± 0.052,2.51 ± 0.056,2.16 ± 0.062,2.64 ± 0.058
QSRRYNLRRHSDIVLDK [SIN4],3.07 ± 0.05,3.21 ± 0.034,3.131 ± 0.028,3.14 ± 0.035
SSLIPHCITSITLALAD [MTR3],1.28 ± 0.055,1.32 ± 0.069,1.27 ± 0.17,1.3 ± 0.083
IHKQIVIEMKRCFENLQ [UBP6],2.75 ± 0.097,2.13 ± 0.093,3.1 ± 0.064,2.87 ± 0.1
IDNGTGRTGNGNMGITT [MED6],2.92 ± 0.12,2.98 ± 0.061,3.25 ± 0.067,3.31 ± 0.043
VKDKEEDHIFFKYIYEL [YDL116W/NUP84],1.34 ± 0.07,1.09 ± 0.093,1.16 ± 0.16,1.06 ± 0.076
VFDLCWNSLMYALQSVK [RRP43],2 ± 0.062,2.02 ± 0.067,2.04 ± 0.074,1.99 ± 0.051
